Measured values reported in patent US20200277377A1 (WUXI BIOLOGICS SHANGHAI, published 2020).

T1: hCTLA4_ECD.His point mutant N145 to alanine (human, UniProt P16410 36-161)
T1 construct: extracellular domain; alanine-scan mutein, HEK293F supernatant
T1 sequence (looked up): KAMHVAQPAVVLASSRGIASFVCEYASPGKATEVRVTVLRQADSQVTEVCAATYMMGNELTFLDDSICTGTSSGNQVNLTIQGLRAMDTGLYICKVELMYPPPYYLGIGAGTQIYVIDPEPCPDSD

T2: hCTLA4_ECD.His point mutant Y139 to alanine (human, UniProt P16410 36-161)
T2 construct: extracellular domain; alanine-scan mutein, HEK293F supernatant
T2 sequence (looked up): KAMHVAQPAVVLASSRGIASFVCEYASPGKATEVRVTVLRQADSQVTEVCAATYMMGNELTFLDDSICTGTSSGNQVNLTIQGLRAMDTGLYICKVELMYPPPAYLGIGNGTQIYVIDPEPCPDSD

T3: hCTLA4_ECD.His point mutant Q148 to alanine (human, UniProt P16410 36-161)
T3 construct: extracellular domain; alanine-scan mutein, HEK293F supernatant
T3 sequence (looked up): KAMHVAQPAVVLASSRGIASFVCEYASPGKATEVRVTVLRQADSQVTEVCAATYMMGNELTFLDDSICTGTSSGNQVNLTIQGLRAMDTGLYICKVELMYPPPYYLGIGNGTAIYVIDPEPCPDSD

T4: hCTLA4_ECD.His point mutant V81 to alanine (human, UniProt P16410 36-161)
T4 construct: extracellular domain; alanine-scan mutein, HEK293F supernatant
T4 sequence (looked up): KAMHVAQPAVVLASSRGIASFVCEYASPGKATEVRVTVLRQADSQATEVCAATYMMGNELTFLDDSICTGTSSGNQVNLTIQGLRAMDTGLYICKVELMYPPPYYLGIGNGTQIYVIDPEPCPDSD

T5: hCTLA4_ECD.His (N145Q) (human, UniProt P16410 36-161)
T5 construct: extracellular domain; Glycosylation-site mutein, expressed in HEK293F cells; also called CTLA-4 N145Q
T5 sequence (looked up): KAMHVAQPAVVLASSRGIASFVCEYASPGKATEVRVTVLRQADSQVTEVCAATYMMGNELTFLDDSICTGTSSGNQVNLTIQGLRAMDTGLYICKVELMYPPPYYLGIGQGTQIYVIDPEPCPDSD

T6: hCTLA4_ECD.His point mutant K65 to alanine (human, UniProt P16410 36-161)
T6 construct: extracellular domain; alanine-scan mutein, HEK293F supernatant
T6 sequence (looked up): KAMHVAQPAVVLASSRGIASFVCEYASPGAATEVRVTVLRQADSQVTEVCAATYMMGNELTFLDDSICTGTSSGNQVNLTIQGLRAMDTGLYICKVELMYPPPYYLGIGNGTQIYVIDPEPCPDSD


Tests used:
Murine CTLA-4.ECD-6×His [1] = target: T7, Murine CTLA-4.ECD-6×His (mouse, UniProt P09793 36-161); experiment: SPR, antibody captured on anti-human Fc, CTLA-4.ECD-6×His as analyte, 1:1 fit
T7 construct: extracellular domain; Bought; also called mouse CTLA-4.ECD-6×His; mouse CTLA-4 ECD
Procedure, shortened: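 Goat anti-human IgG Fcγ amine-coupled to a CM5 chip captured antibodies (4 μg/mL in HBS-EP+). CTLA-4-ECD-6×His was injected at a concentration series, with reference- and buffer-channel subtraction. Kinetics were fitted 1:1, and 10 mM glycine pH 1.5 regeneration was used after each dissociation.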

[2] = target: T1, hCTLA4_ECD.His point mutant N145 to …; experiment: capture ELISA, alanine scan, vs silent alanine substitutions
Procedure, shortened: (§1)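 Secreted His-tagged CTLA4 point muteins in quantified supernatant were captured and probed with HRP anti-His antibody and TMB. Absorbance normalised to the mean of control mutants; epitope residues were assigned with a binding fold-change cutoff of <0.55.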

[3] = target: T2, hCTLA4_ECD.His point mutant Y139 to …; experiment: as above
Procedure, shortened: as §1

[4] = target: T3, hCTLA4_ECD.His point mutant Q148 to …; experiment: as above
Procedure, shortened: as §1

[5] = target: T4, hCTLA4_ECD.His point mutant V81 to …; experiment: as above
Procedure, shortened: as §1

hCTLA4_ECD.His (N145Q) = target: T5, hCTLA4_ECD.His (N145Q); experiment: capture ELISA: W3162-1.146.19-z12 captured on anti-human Fc, hCTLA4-His mutein supernatant titrated (ng/ml), HRP-anti-His [B]
Murine CTLA-4.ECD-6×His [6] = target: T7, Murine CTLA-4.ECD-6×His; experiment: ELISA, coated mouse CTLA-4.ECD-6×His
Description: (§2) ELISA was used to test binding of anti-human CTLA-4 antibodies to human, murine and cynomolgus monkey CTLA-4 protein. A 96-well plate was coated with human CTLA-4.ECD-6×His (1.0 μg/mL), cynomoguls monkey CTLA-4.ECD-6×His (0.5 μg/mL) or mouse CTLA-4.ECD-6×His (0.5 μg/mL) at 4° C. for 16-20 hours. After 1 hour blocking with 2% BSA in DBPS, testing antibodies, as well as positive and negative control antibodies were added to the plates and incubated at room temperature for 1 hour. The binding of the antibodies to the plates were detected by HRP-conjugated goat anti-human IgG antibody (1:5000 dilution) with 1 hour incubation. The color was developed by dispensing 100 μL of TMB substrate for 8 mins, and then stopped by 100 μL of 2N HCl.

[7] = target: T6, hCTLA4_ECD.His point mutant K65 to …; experiment: capture ELISA, alanine scan, vs silent alanine substitutions
Procedure, shortened: as §1

Murine CTLA-4.ECD-6×His [8] = target: T7, Murine CTLA-4.ECD-6×His; experiment: ELISA, antibody titrated on coated mouse CTLA-4.ECD-6xHis, OD450 [C) Murine CTLA-4]
Description: as §2

Kd (Murine CTLA-4.ECD-6×His [1])	koff (Murine CTLA-4.ECD-6×His [1])	kon (Murine CTLA-4.ECD-6×His [1])	Fold change [2]	Fold change [3]	Fold change [4]	Fold change [5]	EC50 (read off the curve) (hCTLA4_ECD.His (N145Q))	EC50 (Murine CTLA-4.ECD-6×His [6])	Fold change [7]	binding result (Murine CTLA-4.ECD-6×His [8])	Binder
1.39 nM	0.000239 s⁻¹	172000 M⁻¹ s⁻¹	0.196 fold	0.431 fold	0.5 fold	0.191 fold	~0.09 µg/mL	0.19 nM			W3162-1.146.19-z12-uAb.IgG1K (antibody, V domains shown, Humanized; label says IgG1K) VH: QVQLQESGPGLVKPSETLSLTCSVTYHTITSGYDWTWIRKPPGKGMEWIGYISYSGNTNYNPSLKSRVTISRDTSKNQFFLKLSSVTAADTAVYYCASMMVPHYYVMDAWGQGTLVTVSS VL: DIVMTQTPLSLSVTPGQPASISCRSSQSLLNSDGNTYLYWYLQKPGQSPQLLIYLVSKLGSGVPNRFSGSGSGTDFTLKISRVEAEDVGVYYCVQGTHDPWTFGGGTKVEIK
									0.351 fold	no binding (tested: about 7 nM)	W3162_1.154.8-z35-uAb.IgG1K (antibody, V domains shown, Humanized; label says IgG1K) VH: QVQLVQSGAEVKKPGSSVKVSCKASGYTFTNYFMNWVRQAPGQGLEWMGRVDPEQGRADYAEKFKKRVTITADKSTSTAYMELSSLRSEDTAVYYCARRAMDNYGFAYWGQGTLVTVSS VL: EIVLTQSPDFQSVTPKEKVTITCSANSALSYMYWYQQKPDQSPKLWVHGTSNLASGVPSRFSGSGSGTDFTLTINSLEAEDAATYYCHHWSNTQWTFGGGTKVEIK
